The results in this text go back to patent publication US20220153822A1 (ALYTAS THERAPEUTICS, published 2022).

First the molecules themselves.
T1: Perilipin epitope 5 peptide AKPSLLSRVGALTNT (SEQ ID NO. 332) (human, Biotin-PEG Spacer and GGSGGS Linker (SEQ ID NO. 438) at the N-terminus, or Biotin-PEG Spacer and AAAAA Linker (SEQ ID NO. 439) at the C-terminus)
T1 construct: Two biotinylated variants were used for selection and ELISA; On the peptide array it stood without biotin; also called target peptide
T1 peptide: AKPSLLSRVGALTNT

T2: Perilipin epitope 2 peptide QYPPEKIASELKDTI (SEQ ID NO. 331) (human, Biotin-PEG Spacer and GGSGGS Linker (SEQ ID NO. 438) at the N-terminus, or Biotin-PEG Spacer and AAAAA Linker (SEQ ID NO. 439) at the C-terminus)
T2 construct: Two biotinylated variants were used for selection and ELISA; On the peptide array it stood without biotin; also called target peptide
T2 peptide: QYPPEKIASELKDTI

T3: Perilipin epitope 1 peptide NKGLTLLDGDLPEQE (SEQ ID NO. 330) (human, Biotin-PEG Spacer and GGSGGS Linker (SEQ ID NO. 438) at the N-terminus, or Biotin-PEG Spacer and AAAAA Linker (SEQ ID NO. 439) at the C-terminus)
T3 construct: Two biotinylated variants were used for selection and ELISA; On the peptide array it stood without biotin; also called target peptide
T3 peptide: NKGLTLLDGDLPEQE

B1: Antibody No. 16 (antibody, V domains shown)
VH: QVQLVEFGGGVVQPGRSLRLSCAASGFTFSSYGMHWVRQAPGKGLEWVAAISYDGSNKYYADSVKGRFTISRDNSKNTLYLQMNSLRAEDTAVYYCAKDMGLSWYGEFDYWGQGTLVTVSS
VL: QSVLTQPPSVSEAPRQRVTISCSGSSSNIGNNAVSWYQQLPGKAPKLLIYYDDLLPSGVSDRFSGSKSGTSASLAISGLQSEDEADYYCAAWDDSLNWVFGGGTKLTVL
notes: human IgG1, lambda or kappa light chain; also called 447-B05
B2: Antibody No. 37 (antibody, V domains shown)
VH: QVQLVQSGAEVKKPGASVKVSCKASGYTFTSYYMHWVRQAPGQGLEWMGIINPSGGSTSYAQKFQGRVTMTRDTSTSTVYMELSSLRSEDTAVYYCARDSYYDSSGYYYADAFDIWGQGTMVTVSS
VL: QSVLTQPPSVSGAPGQRVTISCTGSSSNIGAGYDVHWYQQLPGTAPKLLIYGNSNRPSGVPDRFSGSKSGTSASLAITGLQAEDEADYYCQSYDSSLSGDVVFGGGTKLTVL
notes: human IgG1, lambda or kappa light chain; also called 447-F02
B3: Antibody No. 21 (antibody, V domains shown)
VH: QVQLVESGGGLVQPGRSLRLSCAASGFTFDDYAMHWVRQAPGKGLEWVSGISWNSGSIGYADSVKGRFTISRDNAKNSLYLQMNSLRAEDTALYYCAKEGEYSYGGGEFDPWGQGTLVTVSS
VL: QSALTQPASVSGSPGQSITISCTGTSSDVGGYNYVSWYQQHPGKAPKLMIYDVSNRPSGVSNRFSGSKSGNTASLTISGLQAEDEADYYCSSYTSSSTWVFGGGTKLTVL
notes: human IgG1, lambda or kappa light chain; also called 447-G03
B4: Antibody No. 22 (antibody, V domains shown)
VH: QVQLVESGGGVVQPGRSLRLSCAASGFTFSSYGMHWVRQAPGKGLEWVAVISYDGSNKYYADSVKGRFTISRDNSKNTLYLQMNSLRAEDTAVYYCANTPGGLTPFDYWGQGTLVTVSS
VL: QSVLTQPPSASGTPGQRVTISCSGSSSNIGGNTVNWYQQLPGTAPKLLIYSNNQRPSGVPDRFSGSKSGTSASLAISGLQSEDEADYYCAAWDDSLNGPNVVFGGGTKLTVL
notes: human IgG1, lambda or kappa light chain; also called 447-H03
B5: Antibody No. 17 (antibody, V domains shown)
VH: EVQLVQSGGGVVQPGRSLRLSCAASGFTFSSYGMHWVRQAPGKGLEWVAVISYDGSNKYYADSVKGRFTISRDNSKNTLYLQMNSLRAEDTAVYYCAKDIFMDVWGQGTMVTVSS
VL: QSALTQPASVSGSPGQSITISCTGTSSDVGGYNYVSWYQQHPGKAPKLMIYDVSNRPSGVSNRFSGSKSGNTASLTISGLQAEDEADYYCSSYTSSSTLVVFGGGTKLTVL
notes: human IgG1, lambda or kappa light chain; also called 447-C04
B6: Antibody No. 18 (antibody, V domains shown)
VH: EVQLLESGGGLVQPGRSLRLACVASGFTFDDYGMHWVRQAPGKGLEWVAVISYDGSNKYYADSVKGRFTISRDNSKNTLYLQMNSLRAEDTAVYYCAKAYGEGGFDPWGQGTLVTVSS
VL: B5 VL with D52E, L99T, V100W, L108V
notes: human IgG1, lambda or kappa light chain; also called 447-D03
B7: Antibody No. 38 (antibody, V domains shown)
VH: EVQLVQSGAEVKKPGASVKVSCKASGYTFTSYYMHWVRQAPGQGLEWMGIINPSGGSTSYAQKFQGRVTMTRDTSTSTVYMELSSLRSEDTAVYYCARNVPGDYEVGFDYWGQGTLVTVSS
VL: QSVLTQPPSVSGAPGQRVTISCTGSSSNIGAGYDVHWYQQLPGTAPKLLIYGNSNRPSGVPDRFSGSKSGTSASLAITGLQAEDEADYYCQSYDSSLSAVVFGGGTKLTVL
notes: human IgG1, lambda or kappa light chain; also called 447-A05
B8: Antibody No. 36 (antibody, V domains shown)
VH: EVQLVESGGGVVQPGRSLRLSCAASGFTFSSYAMHWVRQAPGKGLEWVAVISYDGSNKYYADSVKGRFTISRDNSKNTLYLQMNSLRAEDTAVYYCARDPLYGMDVWGQGTLVTVSS
VL: QSVLTQPPSASGSPGQSVTISCTGTSSDVGNYNYVSWFQQHPGKAPKLMIYEVSKRPSGVPDRFSGSKSGNTASLTVSGLQAEDEADYYCASYADSNNLYVFGTGTKLTVL
notes: human IgG1, lambda or kappa light chain; also called 447-B03
B9: Antibody No. 19 (antibody, V domains shown)
VH: QVQLVQSGGGVVQPRRSLRLSCAASGFTFSSYAMHWVRQAPGKGLEWVAVISYDGSNKYYADPVKGRFTISRDNSKNTLYLQMNSLRAEDTAVYYCARGGDGYNWDAFDIWGQGTMVTVSS
VL: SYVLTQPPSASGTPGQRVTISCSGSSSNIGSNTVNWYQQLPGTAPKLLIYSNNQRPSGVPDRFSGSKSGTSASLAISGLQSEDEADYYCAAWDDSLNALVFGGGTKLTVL
notes: human IgG1, lambda or kappa light chain; also called 447-D04
B10: Antibody No. 14 (antibody, V domains shown)
VH: QVQLVESGGGLVQPGRSLRLSCAASGFTFDDYAMHWVRQAPGKGLEWVSGISWNSGSIGYADSVKGRFTISRDNAKNSLYLQMNSLRAEDTALYYCAKEGYGNDAFDIWGQGTMVTVSS
VL: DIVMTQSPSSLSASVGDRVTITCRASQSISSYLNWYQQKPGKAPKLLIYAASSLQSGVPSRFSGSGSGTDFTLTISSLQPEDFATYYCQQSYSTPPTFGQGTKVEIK
notes: human IgG1, lambda or kappa light chain; also called 432-H10
B11: Antibody No. 10 (antibody, V domains shown)
VH: EVQLVQSGAEVKKPGSSVKISCKASGGTFSSYAISWVRQAPGQGLEWMGGIIPIFGTANYAQKFQGRVTITADESTSTAYMELSSLRSEDTAVYYCARSHSSGWEWWGQGTLVTVSS
VL: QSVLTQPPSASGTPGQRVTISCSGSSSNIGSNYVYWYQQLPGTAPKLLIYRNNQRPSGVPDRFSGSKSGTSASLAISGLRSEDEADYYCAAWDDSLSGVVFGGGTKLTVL
notes: human IgG1, lambda or kappa light chain; also called 439-E10
B12: Antibody No. 11 (antibody, V domains shown)
VH: QVQLVQSGAEVKKPGASVKVSCKASGYTFTSYGISWVRQAPGQGLEWMGWISAYNGNTNYAQKLQGRVTMTTDTSTSTAYMELRSLRSDDTAVYYCASLYCSGGSCYSALDPWGQGTLVTVSS
VL: B7 VL with S98R, A99Y, L108V
notes: human IgG1, lambda or kappa light chain; also called 447-D12
B13: Antibody No. 7 (antibody, V domains shown)
VH: QVQLVQSGGSVVQPGRSLRLSCAASGFTFSSYAMHWVRQAPGKGLEWVAVISYDGSNKYYADSVKGRFTISRDNSKNTLYLQMNSLRAEDTAVYYCARFASIAARPFDYWGQGTLVTVSS
VL: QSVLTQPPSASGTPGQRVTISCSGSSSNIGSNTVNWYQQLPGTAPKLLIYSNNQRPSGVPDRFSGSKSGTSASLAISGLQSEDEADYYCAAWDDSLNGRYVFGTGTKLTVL
notes: human IgG1, lambda or kappa light chain; also called 448-D02
B14: Antibody No. 8 (antibody, V domains shown)
VH: QVQLVESGAEVKKPGASVKVSCKASGYTFTSYGISWVRQAPGQGLEWMGWISAYNGNTNYAQKLQGRVTMTTDTSTSTAYMELRSLRSDDTAVYYCARGGSSSNYWGQGTLVTVSS
VL: B3 VL with D52E, W99L
notes: human IgG1, lambda or kappa light chain; also called 448-E03
B15: Antibody No. 5 (antibody, V domains shown)
VH: QVQLVESGGGVVQPGRSLRLSCAASGFTFSSYAMHWVRQAPGKGLEWVAVISYDGSNKYYADSVKGRFTISRDNSKNTLYLQMNSLRAEDTAVYYCARIAAAGPFDYWGQGTLVTVSS
VL: SYVLTQPPSVSEAPRQRVTISCSGSSSNIGNNAVNWYQQLPGKAPKLLIYYDDLLPSGVSDRFSGSKSGTSASLAISGLQSEDEADYYCAAWDDSLNGVVFGGGTKLTVL
notes: human IgG1, lambda or kappa light chain; also called 438-G12; antibody #5
B16: Antibody No. 6 (antibody, V domains shown)
VH: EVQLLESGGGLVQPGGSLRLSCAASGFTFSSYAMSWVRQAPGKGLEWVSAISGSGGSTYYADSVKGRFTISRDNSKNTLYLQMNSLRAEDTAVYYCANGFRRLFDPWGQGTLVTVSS
VL: B5 VL with L99H
notes: human IgG1, lambda or kappa light chain; also called 448-B03
B17: Antibody No. 9 (antibody, V domains shown)
VH: B8 VH with E1Q, E6Q, A33G, R98N, D99N, L101S, Y102S, M104A, V106Y
VL: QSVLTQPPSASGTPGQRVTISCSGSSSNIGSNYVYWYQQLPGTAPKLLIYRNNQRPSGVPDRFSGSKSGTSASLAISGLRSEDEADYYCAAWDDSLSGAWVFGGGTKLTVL
notes: human IgG1, lambda or kappa light chain; also called 448-G01

Substitutions are numbered along the chain they refer to.

In one assay the target is T1, Perilipin epitope 5 peptide …. The assay can be described thus: phage display selection and ELISA on biotinylated target peptide. Background: ELISA stands for enzyme-linked immunosorbent assay.
For B1, the binding result was “binds”. On the same count and under the same terms, then B2, with “binds”; and B3, with “binds”.

Regarding B4, the binding result was “binds”. Still for that read-out and setting: then B5, with “binds”; and B6, with “binds”; and B7, with “binds”. Same read-out and setting: then B8, with “binds”; and B9, with “binds”; and B10, with “binds”.

The target of another assay is T2, Perilipin epitope 2 peptide …. The assay is described as above.
As for B11, the binding result was “binds”. On the same count and under the same terms, next, B12: “binds”.

The next assay has as its target T3, Perilipin epitope 1 peptide …. The description is as above.
For the molecule B13, the binding result was “binds”. As for B14, the binding result was “binds”. Same read-out and setting: then B15, with “binds”. Take B16: the binding result is given as “binds”. In the case of B17, the binding result is “binds”.
